Reference: paper doi:10.1101/2020.11.13.381350 (bioRxiv, 2020)

Target: the molecule itself
Assay: SEC

B1: EGFP-WT-mVP40 (natural protein)
chain: MASSSNYNTYMQYLNPPPYADHGANQLIPADQLSNQQGITPNYVGDLNLDDQFKGNVCHAFTLEAIIDISAYNERTVKGVPAWLPLGIMSNFEYPLAHTVAALLTGSYTITQFTHNGQKFVRVNRLGTGIPAHPLRMLREGNQAFIQNMVIPRNFSTNQFTYNLTNLVLSVQKLPDDAWRPSKDKLIGNTMHPAVSIHPNLPPIVLPTVKKQAYRQHKNPNNGPLLAISGILHQLRVEKVPEKTSLFRISLPADMFSVKEGMMKKRGENSPVVYFQAPENFPLNGFNNRQVVLAYANPTLSAV
**Q.** How did the “stoichiometry N” value turn out when B1 was run?
**A.** Its value is 6.
